The values below come from US20250076311A1 (Chugai, published 2025).

The target of assay [1] is T1, human FcγRIIaH extracellular domain with C-terminal His-tag (human, UniProt P12318 34-217).
T1 construct: also called human FcgRIIaH; FcγRIIa (type H)
T1 sequence: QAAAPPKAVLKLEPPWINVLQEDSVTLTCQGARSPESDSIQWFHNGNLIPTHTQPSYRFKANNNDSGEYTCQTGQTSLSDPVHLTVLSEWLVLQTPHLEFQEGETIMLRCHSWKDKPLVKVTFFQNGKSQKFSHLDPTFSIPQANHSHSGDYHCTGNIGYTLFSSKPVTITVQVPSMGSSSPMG
Kind of assay: SPR, KD(parent SG1)/KD(variant).

The target in assay [2] is T2, cynomolgus monkey FcγRIIIaS extracellular domain with C-terminal His-tag (cynomolgus monkey, UniProt Q8SPW2 21-206 at identity 1.00)).
T2 construct: also called cyno FcgRIIIaS; cynoFcγRIIIaS
T2 chain: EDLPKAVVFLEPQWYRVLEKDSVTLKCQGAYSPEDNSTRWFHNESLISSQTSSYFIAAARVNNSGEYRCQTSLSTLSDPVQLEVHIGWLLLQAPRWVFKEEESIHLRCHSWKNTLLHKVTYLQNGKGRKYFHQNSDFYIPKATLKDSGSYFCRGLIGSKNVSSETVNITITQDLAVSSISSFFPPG
Kind of assay: SPR, KD(parent SG1)/KD(variant). On the technique in general: SPR reads the build-up and loss of mass on a sensor chip optically.

The target of assay [3] is T3, human FcγRIIb extracellular domain with C-terminal His-tag (human, UniProt P31994 43-217).
T3 construct: also called human FcgRIIb
T3 sequence: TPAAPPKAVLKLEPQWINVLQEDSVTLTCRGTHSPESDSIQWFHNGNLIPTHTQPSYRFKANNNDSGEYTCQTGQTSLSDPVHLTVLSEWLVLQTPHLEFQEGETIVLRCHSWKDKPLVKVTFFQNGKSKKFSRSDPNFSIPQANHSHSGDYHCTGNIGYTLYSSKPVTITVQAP
Kind of assay: SPR, KD(parent SG1)/KD(variant).

Assay [4] deals with T4, cynomolgus monkey FcγRIIa3 extracellular domain with C-terminal His-tag (cynomolgus monkey).
T4 construct: also called cyno FcgRIIa3; cynoFcγRIIa3; not shown: His-tag added to the C-terminus
T4 chain: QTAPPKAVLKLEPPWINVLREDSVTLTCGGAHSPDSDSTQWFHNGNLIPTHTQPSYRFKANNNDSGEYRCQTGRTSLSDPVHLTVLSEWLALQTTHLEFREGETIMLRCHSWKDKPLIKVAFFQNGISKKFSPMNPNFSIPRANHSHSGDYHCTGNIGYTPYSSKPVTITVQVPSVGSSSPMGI
Description: SPR (BIACORE), antibody captured, FcgR analyte.

Assay [5] deals with T5, human FcγRIIaR extracellular domain with C-terminal His-tag (human, UniProt P12318 34-217).
T5 construct: also called human FcgRIIaR; FcγRIIa type R; not shown: His-tag added to the C-terminus
T5 chain: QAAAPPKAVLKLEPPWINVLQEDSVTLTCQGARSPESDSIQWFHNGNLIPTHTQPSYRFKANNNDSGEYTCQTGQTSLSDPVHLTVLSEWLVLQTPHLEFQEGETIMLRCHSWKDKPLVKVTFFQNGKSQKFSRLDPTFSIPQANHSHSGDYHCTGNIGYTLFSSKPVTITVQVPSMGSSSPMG
Description: SPR (BIACORE), antibody captured, FcgR analyte.

For assay [6], the target named is T6, human FcγRIIIaV extracellular domain with C-terminal His-tag (human, UniProt P08637 17-208).
T6 construct: also called human FcgRIIIaV; not shown: His-tag added to the C-terminus
T6 sequence (P08637 17-208 F176V): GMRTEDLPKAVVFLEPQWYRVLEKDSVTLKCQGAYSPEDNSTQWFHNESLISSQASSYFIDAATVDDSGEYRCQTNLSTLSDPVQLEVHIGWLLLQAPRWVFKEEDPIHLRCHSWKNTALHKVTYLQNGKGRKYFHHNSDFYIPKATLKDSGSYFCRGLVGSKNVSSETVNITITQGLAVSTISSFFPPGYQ
Description: SPR (BIACORE), antibody captured, FcgR analyte.

The target in assay [7] is T7, cynomolgus monkey FcγRIIb extracellular domain with C-terminal His-tag (cynomolgus monkey).
T7 construct: also called cyno FcgRIIb; cynoFcγRIIb; not shown: His-tag added to the C-terminus
T7 chain: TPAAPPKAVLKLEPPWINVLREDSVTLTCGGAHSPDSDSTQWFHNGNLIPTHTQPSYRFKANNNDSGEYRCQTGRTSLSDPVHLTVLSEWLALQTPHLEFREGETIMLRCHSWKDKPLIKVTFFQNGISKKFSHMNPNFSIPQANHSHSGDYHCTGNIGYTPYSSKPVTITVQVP
Kind of assay: SPR (BIACORE), antibody captured, FcgR analyte.

In assay [8] the target is T8, cynomolgus monkey FcγRIIIaS extracellular domain with C-terminal His-tag (cynomolgus monkey, UniProt A3RFZ7 21-206 (rhesus entry)).
T8 construct: also called cyno FcgRIIIaS; cynoFcγRIIIaS; not shown: His-tag added to the C-terminus
Description: SPR (BIACORE), antibody captured, FcgR analyte.

The target of assay [9] is T9, human FcγRIIb extracellular domain with C-terminal His-tag (human, UniProt P31994 43-217).
T9 construct: also called human FcgRIIb; not shown: His-tag added to the C-terminus
T9 sequence: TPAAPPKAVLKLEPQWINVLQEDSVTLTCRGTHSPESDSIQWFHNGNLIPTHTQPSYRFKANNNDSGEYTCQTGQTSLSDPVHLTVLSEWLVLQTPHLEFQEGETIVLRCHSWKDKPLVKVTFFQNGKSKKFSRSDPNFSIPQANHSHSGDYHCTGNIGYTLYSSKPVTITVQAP
Kind of assay: SPR (BIACORE), antibody captured, FcgR analyte.

B1: MS1032LO06-SG1033 (antibody, human IgG1, kappa, name in EU numbering)
heavy: QVTLKESGPVLVKPTETLTLTCTVSGIDLSHDDISWVRQAPGKGLEWVGIISYAGSTYYASWAKGRLTISKDTSKNQVVLTMTNMDPVDTATYYCARGVPAYSHGGDLWGQGTLVTVSSASTKGPSVFPLAPSSKSTSGGTAALGCLVKDYFPEPVTVSWNSGALTSGVHTFPAVLQSSGLYSLSSVVTVPSSSLGTQTYICNVNHKPSNTKVDKKVEPKSCDKTHTCPPCPAPELLNGPSVFLFPPKPKDTLMISRTPEVTCVVVDVSDEDPEVKFNWYVDGVEVHNAKTKPREEQYNSTYRVVSVLTVLHQDWLNGKEYKCKVSNKALPKPIEKTISKAKGQPREPQVYTLPPSREEMTKNQVSLTCLVKGFYPSDIAVEWESNGQPENNYKTTPPVLDSDGSFFLYSKLTVDKSRWQQGNVFSCSVMHEALHAHYTQKSLSLSP
light: DIVMTQSPATLSLSPGERATLSCTSSQSVYHANWLSWFQQKPGQPPKLLIYWASTLAYGVPSRFSGSGSGTDFTLTISSLQPEDAATYYCAGGYGGGRYAFGQGTKVEIKRTVAAPSVFIFPPSDEQLKSGTASVVCLLNNFYPREAKVQWKVDNALQSGNSQESVTEQDSKDSTYSLSSTLTLSKADYEKHKVYACEVTHQGLSSPVTKSFNRGEC
notes: tied to rows r11/r29 by row order only; also called MS103205H795-SG1033; copies: 2 + 2
As for B1, the entries for the “KD fold (SG1 = 1)” value in assay [1], in assay [2] and in assay [3] were 0.5 fold, 0.06 fold and 1 fold, respectively.

B2: MS1032LO06-SG1034 (antibody, human IgG1, kappa, name in EU numbering)
heavy: QVTLKESGPVLVKPTETLTLTCTVSGIDLSHDDISWVRQAPGKGLEWVGIISYAGSTYYASWAKGRLTISKDTSKNQVVLTMTNMDPVDTATYYCARGVPAYSHGGDLWGQGTLVTVSSASTKGPSVFPLAPSSKSTSGGTAALGCLVKDYFPEPVTVSWNSGALTSGVHTFPAVLQSSGLYSLSSVVTVPSSSLGTQTYICNVNHKPSNTKVDKKVEPKSCDKTHTCPPCPAPELLTGPSVFLFPPKPKDTLMISRTPEVTCVVVDVSDEDPEVKFNWYVDGVEVHNAKTKPREEQYNSTYRVVSVLTVLHRDWLNGKEYKCKVSNKALPKPIEKTISKAKGQPREPQVYTLPPSREEMTKNQVSLTCLVKGFYPSDIAVEWESNGQPENNYKTTPPVLDSDGSFFLYSKLTVKKSRWQQGNVFSCSVMHEALHAHYTQKSLSLSP
light: DIVMTQSPATLSLSPGERATLSCTSSQSVYHANWLSWFQQKPGQPPKLLIYWASTLAYGVPSRFSGSGSGTDFTLTISSLQPEDAATYYCAGGYGGGRYAFGQGTKVEIKRTVAAPSVFIFPPSDEQLKSGTASVVCLLNNFYPREAKVQWKVDNALQSGNSQESVTEQDSKDSTYSLSSTLTLSKADYEKHKVYACEVTHQGLSSPVTKSFNRGEC
notes: tied to rows r12/r30 by row order only; also called MS103205H795-SG1034; copies: 2 + 2
For B2, the “KD fold (SG1 = 1)” value was found to be 2.7 fold in assay [1], 0.11 fold in assay [2] and 1 fold in assay [3].

B3: MS1032LO19-SG1080 (antibody, name in EU numbering)
heavy: QVQLVESGGGLVQPGGSLRLSCAVSGIDLSHDDISWVRQAPGKGLEWVSIISYAGSTYYASWAKGRLTISKDTSKNQVVLTMTNMDPVDTATYYCARGVPAYSHGGDLWGQGTLVTVSSASTKGPSVFPLAPSSKSTSGGTAALGCLVKDYFPEPVTVSWNSGALTSGVHTFPAVLQSSGLYSLSSVVTVPSSSLGTQTYICNVNHKPSNTKVDKKVEPKSCDKTHTCPPCPAPELLNGPSVFLFPPKPKDTLMISRTPEVTCVVVDVSDEDPEVKFNWYVDGVEVHNAKTKPREELYNSTYRVVSVLTVLHRDWLNGKEYKCKVSNTALPKPIEKTISKAKGQRREPQVYTLPPSREEMTKNQVSLTCLVKGFYPSDIAVEWESNGQPENNYKTTPPVLDSDGSFFLYSKLTVDKSRWQQGNVFSCSVMHEALHAHYTRKELSLSP
light: DIVMTQSPATLSLSPGERATLSCTTSQSVYHENWLSWFQQKPGQPPKLLIYWASTLAYGVPSRFSGSGSGTDFTLTISSLQPEDAATYYCAGGYGGGRYAFGQGTKVEIKRTVAAPSVFIFPPSDEQLKSGTASVVCLLNNFYPREAKVQWKVDNALQSGNSQESVTEQDSKDSTYSLSSTLTLSKADYEKHKVYACEVTHQGLSSPVTKSFNRGEC
notes: tied to rows r18/r36 by row order only; also called MS103240H795-SG1080
As to B3, the results for the “KD fold (SG1 = 1)” value in [1] and in assay [2] were 2.5 fold and 0.18 fold, respectively.

B4: M103205H795-MY210/M103202L889-SK1 (antibody, human IgG1, kappa, name in EU numbering)
heavy: QVTLKESGPVLVKPTETLTLTCTVSGIDLSHDDISWVRQAPGKGLEWVGIISYAGSTYYASWAKGRLTISKDTSKNQVVLTMTNMDPVDTATYYCARGVPAYSHGGDLWGQGTLVTVSSASTKGPSVFPLAPSSKSTSGGTAALGCLVKDYFPEPVTVSWNSGALTSGVHTFPAVLQSSGLYSLSSVVTVPSSSLGTQTYICNVNHKPSNTKVDKKVEPKSCDKTHTCPPCPAPELLNGPSVFLFPPKPKDTLMISRTPEVTCVVVDVSDEDPEVKFNWYVDGVEVHNAKTKPREEQYNSTYRVVSVLTVLHQDWLNGKEYKCKVSNTALPKPIEKTISKAKGQPREPQVYTLPPSREEMTKNQVSLTCLVKGFYPSDIAVEWESNGQPENNYKTTPPVLDSDGSFFLYSKLTVDKSRWQQGNVFSCSVMHEALHNHYTQKSLSLSP
light: DIVMTQSPATLSLSPGERATLSCTSSQSVYHANWLSWFQQKPGQPPKLLIYWASTLAYGVPSRFSGSGSGTDFTLTISSLQPEDAATYYCAGGYGGGRYAFGQGTKVEIKRTVAAPSVFIFPPSDEQLKSGTASVVCLLNNFYPREAKVQWKVDNALQSGNSQESVTEQDSKDSTYSLSSTLTLSKADYEKHKVYACEVTHQGLSSPVTKSFNRGEC
notes: Fc variant of MS1032LO06-SG1; positions in EU numbering
Usually Kd stands for a measure of binding affinity in units of concentration. Consider B4, for which the Kd in assay [4] was determined as 2300 nM; in assay [5], 1400 nM; in [6], 31000 nM; in [7], 280 nM; in assay [8], 2400 nM.

B5: M103205H795-MY288/M103202L889-SK1 (antibody, human IgG1, kappa, name in EU numbering)
heavy: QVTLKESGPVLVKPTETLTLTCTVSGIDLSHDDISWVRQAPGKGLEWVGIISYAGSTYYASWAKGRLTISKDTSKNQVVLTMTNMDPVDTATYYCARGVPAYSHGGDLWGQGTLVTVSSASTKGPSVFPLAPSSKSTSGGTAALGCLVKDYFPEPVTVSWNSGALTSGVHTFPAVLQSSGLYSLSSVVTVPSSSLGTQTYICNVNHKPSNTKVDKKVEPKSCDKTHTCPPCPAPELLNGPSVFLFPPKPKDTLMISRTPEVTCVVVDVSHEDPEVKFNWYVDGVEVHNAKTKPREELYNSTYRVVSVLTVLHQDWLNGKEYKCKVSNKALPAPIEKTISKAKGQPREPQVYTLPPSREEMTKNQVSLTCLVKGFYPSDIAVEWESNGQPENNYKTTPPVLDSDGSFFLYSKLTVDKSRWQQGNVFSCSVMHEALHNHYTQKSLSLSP
light: DIVMTQSPATLSLSPGERATLSCTSSQSVYHANWLSWFQQKPGQPPKLLIYWASTLAYGVPSRFSGSGSGTDFTLTISSLQPEDAATYYCAGGYGGGRYAFGQGTKVEIKRTVAAPSVFIFPPSDEQLKSGTASVVCLLNNFYPREAKVQWKVDNALQSGNSQESVTEQDSKDSTYSLSSTLTLSKADYEKHKVYACEVTHQGLSSPVTKSFNRGEC
notes: as for B4
With B5, the Kd in assay [9] is 5100 nM; in assay [7] it was 1200 nM; in assay [8], 1.3 nM.

B6: M103205H795-MY212/M103202L889-SK1 (antibody, human IgG1, kappa, name in EU numbering)
heavy: QVTLKESGPVLVKPTETLTLTCTVSGIDLSHDDISWVRQAPGKGLEWVGIISYAGSTYYASWAKGRLTISKDTSKNQVVLTMTNMDPVDTATYYCARGVPAYSHGGDLWGQGTLVTVSSASTKGPSVFPLAPSSKSTSGGTAALGCLVKDYFPEPVTVSWNSGALTSGVHTFPAVLQSSGLYSLSSVVTVPSSSLGTQTYICNVNHKPSNTKVDKKVEPKSCDKTHTCPPCPAPELLNGPVVFLFPPKPKDTLMISRTPEVTCVVVDVSDEDPEVKFNWYVDGVEVHNAKTKPREELYNSTYRVVSVLTVLHQDWLNGKEYKCKVSNTALPKPIEKTISKAKGQPREPQVYTLPPSREEMTKNQVSLTCLVKGFYPSDIAVEWESNGQPENNYKTTPPVLDSDGSFFLYSKLTVDKSRWQQGNVFSCSVMHEALHNHYTQKSLSLSP
light: DIVMTQSPATLSLSPGERATLSCTSSQSVYHANWLSWFQQKPGQPPKLLIYWASTLAYGVPSRFSGSGSGTDFTLTISSLQPEDAATYYCAGGYGGGRYAFGQGTKVEIKRTVAAPSVFIFPPSDEQLKSGTASVVCLLNNFYPREAKVQWKVDNALQSGNSQESVTEQDSKDSTYSLSSTLTLSKADYEKHKVYACEVTHQGLSSPVTKSFNRGEC
notes: as for B4
With B6, the Kd in assay [4] is 2900 nM; in assay [7], 570 nM; in assay [8], 2600 nM.
